In patent publication US20140256789:

Assays:
[1] = system: p53 (wild-type, transfected); assay: cell_activity; settings: luciferase reporter in H1299 with wtp53, fold above pGL3-basic
[2] = biological target: p53 (wild-type, endogenous) (Homo sapiens) (UniProt P04637); assay: cell_activity; settings: fold decrease in luciferase on p53 siRNA knockdown in HCT116
Chain of p53 (wild-type, endogenous) (Homo sapiens) (P04637 whole entry): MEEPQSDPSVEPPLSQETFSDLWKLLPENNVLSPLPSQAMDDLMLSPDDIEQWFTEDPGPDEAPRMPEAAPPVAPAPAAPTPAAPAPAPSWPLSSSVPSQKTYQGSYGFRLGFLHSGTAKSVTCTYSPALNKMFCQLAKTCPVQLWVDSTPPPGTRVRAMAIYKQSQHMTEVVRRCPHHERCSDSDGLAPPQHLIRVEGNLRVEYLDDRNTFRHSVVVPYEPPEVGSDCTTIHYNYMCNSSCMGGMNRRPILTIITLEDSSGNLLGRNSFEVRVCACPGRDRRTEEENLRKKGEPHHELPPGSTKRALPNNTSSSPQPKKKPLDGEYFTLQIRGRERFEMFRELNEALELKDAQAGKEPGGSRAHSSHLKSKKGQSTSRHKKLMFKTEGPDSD

With “EST-Prom-luc (about 2 kb miR-34a promoter region with p53BS)” the activity [1] was 20 fold and the activity [2] was > 3 fold.
